Target: HSA/hEPO (83.5 Kd) (human)
Assay: double-antibody sandwich ELISA (R&D Systems EPO kit), against the recombinant human EPO standard

activity compared with the standard (of the activity of the EPO standard): 0.1
Substance: anti-EPO antibodies of the EPO ELISA kit from R&D Systems (tool reagent)
